{
  "source": "patent US20230002480A1",
  "assay_in_all_cases": "cell-based or functional assay",
  "key": {"[1]": {"molecular_target": "HIV-1 Env of pseudovirus CNE52 (HIV-1)"}, "[2]": {"molecular_target": "HIV-1 Env of pseudovirus 3365.v2.c2 (HIV-1)"}, "[3]": {"molecular_target": "HIV-1 Env of pseudovirus 231965.c01 (HIV-1)"}, "[4]": {"molecular_target": "HIV-1 Env of pseudovirus TRJO4551.58 (HIV-1)"}, "[5]": {"molecular_target": "HIV-1 Env of pseudovirus THRO4156.18 (HIV-1)"}, "[6]": {"molecular_target": "HIV-1 Env of pseudovirus 6952.v1.c20 (HIV-1)"}, "[7]": {"molecular_target": "HIV-1 Env of pseudovirus PVO.4 (HIV-1)"}, "[8]": {"molecular_target": "HIV-1 Env of pseudovirus 211-9 (HIV-1)"}, "[9]": {"molecular_target": "HIV-1 Env of pseudovirus X1632_S2_B10 (HIV-1)"}, "[10]": {"molecular_target": "HIV-1 Env of pseudovirus 620345.c01 (HIV-1)"}, "[11]": {"molecular_target": "HIV-1 Env of pseudovirus P0402_c2_11 (HIV-1)"}, "[12]": {"molecular_target": "HIV-1 Env of pseudovirus C3347.c11 (HIV-1)"}, "[13]": {"molecular_target": "HIV-1 Env of pseudovirus 246F C1G (HIV-1)"}, "[14]": {"molecular_target": "HIV-1 Env of pseudovirus 3301.v1.c24 (HIV-1)"}, "[15]": {"molecular_target": "HIV-1 Env of pseudovirus ZM247v1(Rev-) (HIV-1)"}, "[16]": {"molecular_target": "HIV-1 Env of pseudovirus ZM135M.PL10a (HIV-1)"}, "[17]": {"molecular_target": "HIV-1 Env of pseudovirus SC422661.8 (HIV-1)"}, "[18]": {"molecular_target": "HIV-1 Env of pseudovirus AC10.0.29 (HIV-1)"}, "[19]": {"molecular_target": "HIV-1 Env of pseudovirus ZM197M.PB7 (HIV-1)"}, "[20]": {"molecular_target": "HIV-1 Env of pseudovirus Q769.d22 (HIV-1)"}, "[21]": {"molecular_target": "HIV-1 Env of pseudovirus 9004SS_A3_4 (HIV-1)"}, "[22]": {"molecular_target": "HIV-1 Env of pseudovirus T257-31 (HIV-1)"}, "[23]": {"molecular_target": "HIV-1 Env of pseudovirus T255-34 (HIV-1)"}, "[24]": {"molecular_target": "HIV-1 Env of pseudovirus C1080.c03 (HIV-1)"}, "[25]": {"molecular_target": "HIV-1 Env of pseudovirus 89-F1_2_25 (HIV-1)"}, "[26]": {"molecular_target": "HIV-1 Env of pseudovirus CNE19 (HIV-1)"}, "[27]": {"molecular_target": "HIV-1 Env of pseudovirus BJOX025000.01.1 (HIV-1)"}, "[28]": {"molecular_target": "HIV-1 Env of pseudovirus 6480.v4.c25 (HIV-1)"}, "[29]": {"molecular_target": "HIV-1 Env of pseudovirus BJOX010000.06.2 (HIV-1)"}, "[30]": {"molecular_target": "HIV-1 Env of pseudovirus CNE21 (HIV-1)"}, "[31]": {"molecular_target": "HIV-1 Env of pseudovirus 6545.v4.c1 (HIV-1)"}, "[32]": {"molecular_target": "HIV-1 Env of pseudovirus HIV-0013095-2.11 (HIV-1)"}, "[33]": {"molecular_target": "HIV-1 Env of pseudovirus SC05_8C11_2344 (HIV-1)"}, "[34]": {"molecular_target": "HIV-1 Env of pseudovirus 3103.v3.c10 (HIV-1)"}, "[35]": {"molecular_target": "HIV-1 Env of pseudovirus HIV-16055-2.3 (HIV-1)"}, "[36]": {"molecular_target": "HIV-1 Env of pseudovirus 263-8 (HIV-1)"}, "[37]": {"molecular_target": "HIV-1 Env of pseudovirus Ce1086_B2 (HIV-1)"}},
  "data": [
    {"substance": "8ANC195 (antibody)", "values": [
      {"measurement": "neutralization IC50", "setting": "[1]", "value": 5.59, "unit": "µg/mL"},
      {"measurement": "neutralization IC80", "setting": "[1]", "value": 43.1, "unit": "µg/mL"},
      {"measurement": "neutralization IC50", "setting": "[2]", "value": "> 30", "unit": "µg/mL"},
      {"measurement": "neutralization IC80", "setting": "[2]", "value": "> 30", "unit": "µg/mL"},
      {"measurement": "IC50, titer in TZM.bl cells", "setting": "[3]", "value": 2.36, "unit": "µg/mL"},
      {"measurement": "IC80, titer in TZM.bl cells", "setting": "[3]", "value": 2.36, "unit": "µg/mL"},
      {"measurement": "neutralization IC50", "setting": "[4]", "value": 0.19, "unit": "µg/mL"},
      {"measurement": "neutralization IC80", "setting": "[4]", "value": 1.17, "unit": "µg/mL"},
      {"measurement": "neutralization IC50", "setting": "[5]", "value": "> 50", "unit": "µg/mL"},
      {"measurement": "neutralization IC80", "setting": "[5]", "value": "> 50", "unit": "µg/mL"},
      {"measurement": "IC50, titer in TZM.bl cells", "setting": "[6]", "value": 1.38, "unit": "µg/mL"},
      {"measurement": "IC80, titer in TZM.bl cells", "setting": "[6]", "value": 7.22, "unit": "µg/mL"},
      {"measurement": "neutralization IC50", "setting": "[7]", "value": 0.52, "unit": "µg/mL"},
      {"measurement": "neutralization IC80", "setting": "[7]", "value": 1.87, "unit": "µg/mL"},
      {"measurement": "IC50, titer in TZM.bl cells", "setting": "[8]", "value": 1.34, "unit": "µg/mL"},
      {"measurement": "IC80, titer in TZM.bl cells", "setting": "[8]", "value": 8.43, "unit": "µg/mL"},
      {"measurement": "IC50, titer in TZM.bl cells", "setting": "[9]", "value": 0.47, "unit": "µg/mL"},
      {"measurement": "IC80, titer in TZM.bl cells", "setting": "[9]", "value": 4.11, "unit": "µg/mL"},
      {"measurement": "IC50, titer in TZM.bl cells", "setting": "[10]", "value": "> 50", "unit": "µg/mL"},
      {"measurement": "IC80, titer in TZM.bl cells", "setting": "[10]", "value": "> 50", "unit": "µg/mL"},
      {"measurement": "IC50, titer in TZM.bl cells", "setting": "[11]", "value": 0.62, "unit": "µg/mL"},
      {"measurement": "IC80, titer in TZM.bl cells", "setting": "[11]", "value": 6.35, "unit": "µg/mL"},
      {"measurement": "IC50, titer in TZM.bl cells", "setting": "[12]", "value": "> 50", "unit": "µg/mL"},
      {"measurement": "IC80, titer in TZM.bl cells", "setting": "[12]", "value": "> 50", "unit": "µg/mL"},
      {"measurement": "neutralization IC50", "setting": "[13]", "value": 12.8, "unit": "µg/mL"},
      {"measurement": "neutralization IC80", "setting": "[13]", "value": "> 50", "unit": "µg/mL"},
      {"measurement": "IC50, titer in TZM.bl cells", "setting": "[14]", "value": "> 50", "unit": "µg/mL"},
      {"measurement": "IC80, titer in TZM.bl cells", "setting": "[14]", "value": "> 50", "unit": "µg/mL"},
      {"measurement": "neutralization IC50", "setting": "[15]", "value": 3.41, "unit": "µg/mL"},
      {"measurement": "neutralization IC80", "setting": "[15]", "value": 25.1, "unit": "µg/mL"},
      {"measurement": "neutralization IC50", "setting": "[16]", "value": "> 50", "unit": "µg/mL"},
      {"measurement": "neutralization IC80", "setting": "[16]", "value": "> 50", "unit": "µg/mL"},
      {"measurement": "neutralization IC50", "setting": "[17]", "value": 0.29, "unit": "µg/mL"},
      {"measurement": "neutralization IC80", "setting": "[17]", "value": 4.67, "unit": "µg/mL"},
      {"measurement": "neutralization IC50", "setting": "[18]", "value": 0.88, "unit": "µg/mL"},
      {"measurement": "neutralization IC80", "setting": "[18]", "value": 7, "unit": "µg/mL"},
      {"measurement": "neutralization IC50", "setting": "[19]", "value": 23.4, "unit": "µg/mL"},
      {"measurement": "neutralization IC80", "setting": "[19]", "value": "> 50", "unit": "µg/mL"},
      {"measurement": "neutralization IC50", "setting": "[20]", "value": 0.26, "unit": "µg/mL"},
      {"measurement": "neutralization IC80", "setting": "[20]", "value": 1.2, "unit": "µg/mL"},
      {"measurement": "neutralization IC50", "setting": "[21]", "value": 0.17, "unit": "µg/mL"},
      {"measurement": "neutralization IC80", "setting": "[21]", "value": 0.81, "unit": "µg/mL"},
      {"measurement": "neutralization IC50", "setting": "[22]", "value": 0.32, "unit": "µg/mL"},
      {"measurement": "neutralization IC80", "setting": "[22]", "value": 3.89, "unit": "µg/mL"},
      {"measurement": "IC50, titer in TZM.bl cells", "setting": "[23]", "value": 0.54, "unit": "µg/mL"},
      {"measurement": "IC80, titer in TZM.bl cells", "setting": "[23]", "value": 8.09, "unit": "µg/mL"},
      {"measurement": "IC50, titer in TZM.bl cells", "setting": "[24]", "value": 0.17, "unit": "µg/mL"},
      {"measurement": "IC80, titer in TZM.bl cells", "setting": "[24]", "value": 1.12, "unit": "µg/mL"},
      {"measurement": "IC50, titer in TZM.bl cells", "setting": "[25]", "value": "> 50", "unit": "µg/mL"},
      {"measurement": "IC80, titer in TZM.bl cells", "setting": "[25]", "value": "> 50", "unit": "µg/mL"},
      {"measurement": "neutralization IC50", "setting": "[26]", "value": 0.29, "unit": "µg/mL"},
      {"measurement": "neutralization IC80", "setting": "[26]", "value": 1.73, "unit": "µg/mL"},
      {"measurement": "IC50, titer in TZM.bl cells", "setting": "[27]", "value": 4.96, "unit": "µg/mL"},
      {"measurement": "IC80, titer in TZM.bl cells", "setting": "[27]", "value": "> 50", "unit": "µg/mL"},
      {"measurement": "IC50, titer in TZM.bl cells", "setting": "[28]", "value": 0.16, "unit": "µg/mL"},
      {"measurement": "IC80, titer in TZM.bl cells", "setting": "[28]", "value": 1.13, "unit": "µg/mL"},
      {"measurement": "IC50, titer in TZM.bl cells", "setting": "[29]", "value": 0.85, "unit": "µg/mL"},
      {"measurement": "IC80, titer in TZM.bl cells", "setting": "[29]", "value": 5.84, "unit": "µg/mL"},
      {"measurement": "neutralization IC50", "setting": "[30]", "value": 0.27, "unit": "µg/mL"},
      {"measurement": "neutralization IC80", "setting": "[30]", "value": 1.52, "unit": "µg/mL"},
      {"measurement": "IC50, titer in TZM.bl cells", "setting": "[31]", "value": 26.9, "unit": "µg/mL"},
      {"measurement": "IC80, titer in TZM.bl cells", "setting": "[31]", "value": "> 50", "unit": "µg/mL"},
      {"measurement": "neutralization IC50", "setting": "[32]", "value": 0.32, "unit": "µg/mL"},
      {"measurement": "neutralization IC80", "setting": "[32]", "value": 1.85, "unit": "µg/mL"},
      {"measurement": "neutralization IC50", "setting": "[33]", "value": 0.47, "unit": "µg/mL"},
      {"measurement": "neutralization IC80", "setting": "[33]", "value": 3.06, "unit": "µg/mL"},
      {"measurement": "IC50, titer in TZM.bl cells", "setting": "[34]", "value": 48.1, "unit": "µg/mL"},
      {"measurement": "IC80, titer in TZM.bl cells", "setting": "[34]", "value": "> 50", "unit": "µg/mL"},
      {"measurement": "neutralization IC50", "setting": "[35]", "value": 15.3, "unit": "µg/mL"},
      {"measurement": "neutralization IC80", "setting": "[35]", "value": "> 50", "unit": "µg/mL"},
      {"measurement": "neutralization IC50", "setting": "[36]", "value": "> 50", "unit": "µg/mL"},
      {"measurement": "neutralization IC80", "setting": "[36]", "value": "> 50", "unit": "µg/mL"},
      {"measurement": "neutralization IC50", "setting": "[37]", "value": 4.42, "unit": "µg/mL"},
      {"measurement": "neutralization IC80", "setting": "[37]", "value": 19.1, "unit": "µg/mL"}
    ]}
  ]
}
